From paper PMC7156367, “Cell surface processing of the P1 adhesin of Mycoplasma pneumoniae identifies novel domains that bind host molecules” (Scientific Reports, 2020)
“Also recorded” adds a separate entry of the source. Where no end group is shown, it is not given here. The star is where a group is joined. Biotin = O=C1N[C@H]2[C@H](CS[C@H]2CCCCC(=O)*)N1

Columns and labels:
[1] = biological target: T1, Fetuin, fluorescent labelled (microscale thermophoresis) (bovine, UniProt P12763 19-359, fluorescent label); assay: MST; fluorescent labelled host protein, peptide titrated; thermophoresis 30 s, 40%, 60% and 80% MST power; details: both partners purified
T1 construct: fetuin
T1 sequence (looked up): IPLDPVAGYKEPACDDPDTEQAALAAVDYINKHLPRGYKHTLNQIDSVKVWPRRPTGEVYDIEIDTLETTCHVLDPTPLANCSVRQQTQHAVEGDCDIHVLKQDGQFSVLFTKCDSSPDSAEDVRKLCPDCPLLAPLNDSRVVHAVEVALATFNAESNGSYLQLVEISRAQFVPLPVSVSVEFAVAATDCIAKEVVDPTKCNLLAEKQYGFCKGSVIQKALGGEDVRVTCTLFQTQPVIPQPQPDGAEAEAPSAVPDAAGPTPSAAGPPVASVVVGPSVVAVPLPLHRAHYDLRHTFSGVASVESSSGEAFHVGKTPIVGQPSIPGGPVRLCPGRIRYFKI

A549 human lung cells = assay: Binding to immobilised A549 human lung cells (microtitre plate); assay type: cell-based; details: 10 µg/ml; detection with antiserum against RP15 (1:100), absorbance 450 nm; eight replicates
Description: Freshly grown A549 cells were immobilised in 96-well microtitre plates as described in[17]. Immobilised A549 cells were incubated with 10 µg/ml of either RP15, P1-30, or P1-15 and binding affinity was measured with antiserum raised against RP15 (1:100) as described above. Absorbance detection at 450 nm is the same as described above.

Glu-plasminogen = assay: Microtitre plate binding assay (ELISA), plasminogen; set-up: species or system human; details: 15 µg/ml of C-terminal P1 fragments bound to wells, absorbance 450 nm (620 nm reference), eight replicates, P1-15 with N-terminal biotin tag
Description: (§1) Human proteins used for ELISA include: plasma fibrinogen (Code: F3879), plasma fibronectin (Code: 11051407001), Glu-plasminogen (Code: P7999), vitronectin (Code: SRP3186), laminin (Code: L6274), and lactoferrin (Code: L1294) which were all supplied by Sigma.
(§2) Binding affinity measured by ELISA was performed as described previously. Recombinant protein RP15 was produced as described[55] and both C-terminal peptides were synthesised by Chempeptide Limited (China). P1-30 (^1597[…]^1627) without any tags, but P1-15 (^1613PGAPKPPVQPPKKPA^1627) was sequenced with an N-terminal biotin tag.
(§3) 15 µg/ml of C-terminal P1 fragments were bound to wells and incubated with different host proteins. Wells were then incubated with different antiserum raised against the different host proteins at the following dilutions (all from Sigma): anti-fibrinogen 1:3000, anti-fibronectin 1:1000, anti-plasminogen: 1:2500, anti-vitronectin 1:5000, anti-laminin 1:750, and anti-lactoferrin 1:5,000. These incubations were followed by incubations with anti-rabbit IgG (Dako) or anti-goat IgG (both 1:2,000). Detection was measured by adding Tetramethylbenzidine (Sigma) followed by 1 M HCl, and absorbance was measured at 450 nm (620 nm as reference).

laminin = assay: Microtitre plate binding assay (ELISA), laminin; set-up: species or system human; details: 15 µg/ml of C-terminal P1 fragments bound to wells, absorbance 450 nm (620 nm reference), eight replicates, P1-15 with N-terminal biotin tag
Description: as §1, §2, §3

panel of host proteins = assay: Microtitre binding assays, panel of host proteins; set-up: species or system human; details: 15 µg/ml of C-terminal P1 fragments bound to wells
Description: as §1, §2, §3

lactoferrin = assay: Microtitre plate binding assay (ELISA), lactoferrin; set-up: species or system human; details: 15 µg/ml of C-terminal P1 fragments bound to wells, absorbance 450 nm (620 nm reference), eight replicates, P1-15 with N-terminal biotin tag
Description: as §1, §2, §3

plasma fibrinogen = assay: Microtitre plate binding assay (ELISA), fibrinogen; set-up: species or system human; details: 15 µg/ml of C-terminal P1 fragments bound to wells, absorbance 450 nm (620 nm reference), eight replicates, P1-15 with N-terminal biotin tag
Description: as §1, §2, §3

vitronectin = assay: Microtitre plate binding assay (ELISA), vitronectin; set-up: species or system human; details: 15 µg/ml of C-terminal P1 fragments bound to wells, absorbance 450 nm (620 nm reference), eight replicates, P1-15 with N-terminal biotin tag
Description: as §1, §2, §3

plasma fibronectin = assay: Microtitre plate binding assay (ELISA), fibronectin; set-up: species or system human; details: 15 µg/ml of C-terminal P1 fragments bound to wells, absorbance 450 nm (620 nm reference), eight replicates, P1-15 with N-terminal biotin tag
Description: as §1, §2, §3

Human vitronectin = biological target: T2, Human vitronectin (human, UniProt P04004 20-478); assay: ELISA; 15 µg/ml of C-terminal P1 fragment bound to wells, incubated with host protein at several concentrations; detected with antiserum against the host protein, absorbance at 450 nm; details: both partners purified
T2 construct: vitronectin, human, Sigma SRP3186; source: bought: Sigma (Code SRP3186)

Human lactoferrin = biological target: T3, Human lactoferrin (human, UniProt P02788 20-710); assay: as above; details: both partners purified
T3 construct: lactoferrin, human, Sigma L1294; source: bought: Sigma (Code L1294)
T3 sequence (P02788 20-710): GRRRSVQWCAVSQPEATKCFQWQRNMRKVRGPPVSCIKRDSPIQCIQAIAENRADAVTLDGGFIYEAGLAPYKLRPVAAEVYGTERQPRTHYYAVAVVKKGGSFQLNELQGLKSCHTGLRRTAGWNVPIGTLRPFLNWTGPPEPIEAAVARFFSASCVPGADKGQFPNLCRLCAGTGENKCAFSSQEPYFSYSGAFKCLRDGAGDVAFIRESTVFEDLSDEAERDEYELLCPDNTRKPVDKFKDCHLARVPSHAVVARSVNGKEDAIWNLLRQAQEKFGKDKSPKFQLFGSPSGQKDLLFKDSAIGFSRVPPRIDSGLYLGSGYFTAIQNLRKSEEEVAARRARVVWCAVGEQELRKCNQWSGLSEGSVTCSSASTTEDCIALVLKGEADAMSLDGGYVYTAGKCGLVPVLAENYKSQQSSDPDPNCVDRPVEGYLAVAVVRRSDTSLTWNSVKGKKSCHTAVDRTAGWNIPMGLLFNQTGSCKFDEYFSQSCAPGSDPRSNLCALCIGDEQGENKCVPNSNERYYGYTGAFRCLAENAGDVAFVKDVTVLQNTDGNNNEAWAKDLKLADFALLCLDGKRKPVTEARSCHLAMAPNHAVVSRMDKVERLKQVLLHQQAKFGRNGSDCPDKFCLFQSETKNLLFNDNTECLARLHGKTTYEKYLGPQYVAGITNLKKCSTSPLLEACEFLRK

T2 sequence (P04004 20-478): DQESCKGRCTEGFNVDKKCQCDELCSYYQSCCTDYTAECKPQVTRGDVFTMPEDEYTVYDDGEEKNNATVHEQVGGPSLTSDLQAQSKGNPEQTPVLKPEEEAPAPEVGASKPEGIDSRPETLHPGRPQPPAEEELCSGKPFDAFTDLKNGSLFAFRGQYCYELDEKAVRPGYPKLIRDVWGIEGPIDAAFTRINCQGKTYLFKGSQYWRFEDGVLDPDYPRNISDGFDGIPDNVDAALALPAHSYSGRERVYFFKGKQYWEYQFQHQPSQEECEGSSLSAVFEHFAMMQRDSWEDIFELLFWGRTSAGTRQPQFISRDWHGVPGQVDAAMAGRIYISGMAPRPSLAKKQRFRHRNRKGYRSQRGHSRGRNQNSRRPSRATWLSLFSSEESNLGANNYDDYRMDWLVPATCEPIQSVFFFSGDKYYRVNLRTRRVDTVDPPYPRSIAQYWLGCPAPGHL

B1: P1-30, synthetic C-terminal peptide of P1 adhesin (peptide)
peptide: TSAAKPGAPRPPVPPKPGAPKPPVQPPKKPA
notes: P1 adhesin (Mpn141) of M. pneumoniae, residues 1597-1627; without any tags; also called C-terminal 30 amino acids; P1 tail; source: synthetic peptide (Chempeptide Limited, China)
**Q.** B1 was tested. Which Kd [1] did it give?
**A.** 2.4 ± 0.7 µM

B2: Recombinant protein RP15 (C-terminal region of P1 adhesin) (domain or fragment)
chain: DYVLPLAITVPIVVIVLSVTLGLAIGIPMHKNKQALKAGFALSNQKVDVLTKAVGSVFKEIINRTGISQAPKRLKQTSAAKPGAPRPPVPPKPGAPKPPVQPPKKPA
notes: P1 adhesin (Mpn141) of M. pneumoniae, residues 1521-1627
**Q.** What does the source list for B2?
**A.** binding to immobilised A549 cells (A549 human lung cells): bound immobilised A549 cells; also recorded: observed to bind immobilised A549 cells; binding to plasminogen (Glu-plasminogen): bound lactoferrin, vitronectin, plasminogen; binding to plasminogen (Glu-plasminogen; listed as RP-15): bound it more strongly; binding to laminin (laminin): Only M. pneumoniae cells bound laminin; binding to panel of host molecules (panel of host proteins): bind a range of host molecules in a dose dependent manner; also recorded: most consistent and most diverse binding capabilities; binding to lactoferrin (lactoferrin): bound lactoferrin; binding to fibrinogen (plasma fibrinogen): bound lactoferrin, vitronectin, plasminogen, fibronectin, and fibrinogen; binding to fibrinogen (plasma fibrinogen; listed as RP-15): bound fibronectin and fibrinogen more strongly than P1-30; binding to vitronectin (vitronectin): bound lactoferrin, vitronectin; binding to fibronectin (plasma fibronectin): bound lactoferrin, vitronectin, plasminogen, fibronectin; binding to fibronectin (plasma fibronectin; listed as RP-15): bound fibronectin and fibrinogen more strongly than P1-30; binding result (Human vitronectin): binds; binding result (Human lactoferrin): binds

B3: P1-15, synthetic C-terminal peptide of P1 adhesin with N-terminal biotin (peptide)
peptide: Biotin-PGAPKPPVQPPKKPA
notes: P1 adhesin (Mpn141) of M. pneumoniae, residues 1613-1627; also called C-terminal 15 amino acids; source: synthetic peptide (Chempeptide Limited, China)
**Q.** Does B3 bind (Human vitronectin)?
**A.** binds

B4: rPdhB: Recombinant pyruvate dehydrogenase subunit B of M. pneumoniae (positive control) (protein, UniProt P75391 1-327, looked up)
Pyruvate dehydrogenase E1 …: MSKTIQANNIEALGNAMDLALERDPNVVLYGQDAGFEGGVFRATKGLQKKYGEERVWDCPIAEAAMAGIGVGAAIGGLKPIVEIQFSGFSFPAMFQIFTHAARIRNRSRGVYTCPIIVRMPMGGGIKALEHHSETLEAIYGQIAGLKTVMPSNPYDTKGLFLAAVESPDPVVFFEPKKLYRAFRQEIPADYYTVPIGQANLISQGNNLTIVSYGPTMFDLINMVYGGELKDKGIELIDLRTISPWDKETVFNSVKKTGRLLVVTEAAKTFTTSGEIIASVTEELFSYLKAAPQRVTGWDIVVPLARGEHYQFNLNARILEAVNQLLK
**Q.** With B4 as the molecule, how does the “binding to immobilised A549 cells” value (A549 human lung cells) read?
**A.** bound immobilised A549 cells
